Measurements from patent US12618835B2, “Multiplex microelectrode array for detection of proteases as biomarkers” (Kansas State University Research Foundation, priority 2021, dated 2026).
Several values for one entry are separate records, joined by “and”; a condition that tells them apart may be missing. Identical values can stand only once. Where no end group is shown, it is not given here. [ ]: non-standard residue; d: D form. The star is where a group is joined. aminomethylferrocene = [Fe+2].c1cc[c-](CN*)c1.c1cc[cH-]c1; Ava = NCCCCC(=O)O

Target: cathepsin B (Homo sapiens, UniProt P07858)
Experiment: Electrochemical (AC voltammetry) proteolysis of peptide-Fc substrates on 3x3 Au MEA, Example 1
Format: biochemical
Set-up: purchased R&D Systems Inc. (Minneapolis, MN)
Conditions: for 1/τ AVG: average of 3 channels per peptide, 50 mM MES buffer pH=5.0, FIG. 8; for average values of 1/τ: three peptides on one MEA, 3 channels each, 50 mM MES pH=5.0
Description: N-Fluorenylmethyloxycarbonyl (Fmoc) protected amino acids, amino acid attached 2-chlorotrityl resins, 1-[bis(dimethylamino)methylene]-1H-1,2,3-triazolo[4,5-b]pyridinium 3-oxide hexafluorophosphate (HATU), and 2-(1H-benzotriazol-1-yl)-1,1,3,3-tetramethyluronium hexafluorophosphate (HBTU) were purchased from Chem-Impex International, Inc. (Wood Dale, IL) and AAPPTEC LLC (Louisville, KY). Potassium hexacyanoferrate (II) trihydrate, potassium nitrate, 1-ethyl-3-(3-dimethylaminopropyl)carbodiimide (EDC), N-hydroxysulfosuccinimide (Sulfo-NHS), 6-mercapto-1-hexanol, and 6-mercapto-1-hexanoic acid were obtained from Sigma-Aldrich (St. Louis, MO). Dithiothreitol (DTT), sodium phosphate dibasic heptahydrate (Na2HPO4·7H2O), sodium phosphate monobasic (NaH2PO4) and 2-(4-morpholino)ethanesulfonic acid ([…]) were purchased from Fisher Scientific (Hampton, NH). […] Cathepsin B solutions were activated by incubation in 25 mM MES buffer (pH=5.0) containing 5 mM DTT for 15 min before proteolysis experiments.
Electrochemical measurements were performed using an Ivium n-Stat Potentiostat (Eindhoven, The Netherlands) outfitted with five dual channel modules, allowing up to ten independent working electrodes to function simultaneously with a common reference and counter electrodes. […] In this study, the nine leads from the potentiostat (FIG. 9b) were interfaced with a breakout box, which was then connected to a custom-built electrochemical cell via a ribbon cable (FIG. 9c). The sensor chip consists of nine lithographically patterned Au working microelectrodes placed in the custom-built electrochemical cell (FIG. 9d) and electrical contact was made via pogo pins. All measurements were performed using a common mercury/mercurous sulfate reference electrode (Hg/Hg2SO4, MSE) filled with a saturated solution of K2SO4 (CH Instruments, Austin, TX) and a common Pt wire counter electrode.
Prior to use, the MEAs were sonicated in acetone for 1 minute, subsequently rinsed with methanol and isopropanol for 15 s and then dried by blowing with nitrogen. Next, the electrodes were placed in the experimental cell and electrochemically cleaned by cycling from −0.60 to 0.70 V vs. MSE in 0.10 M phosphate buffer (pH=7.4). For the experiments using an MEA modified with the same peptide-Fc substrate (i.e., H-15) on all nine microelectrodes, the whole chip was incubated in a mixture of 1.0 mM 6-mercapto-1-hexanol and 0.2 mM 6-mercapto-1-hexanoic acid in deionized water for 40 min to form a self-assembled monolayer (SAM). This step passivated the entire Au microelectrode surface while leaving adequate spacing between the exposed carboxyl functionalities. Next, the electrodes were incubated in a solution containing 2.0 mM peptide-Fc substrate (i.e., H-3, H-15, or H-16), 0.20 g/l EDC and 0.20 g/l sulfo-NHS for 2 hours at room temperature so that the peptides were covalently attached to the carboxyl groups of the SAM through the formation of amide bonds. The low ratio of carboxyl to hydroxyl groups at the SAM surface ensured a large separation between the peptide-Fc molecules which was important to reduce the steric hindrance during subsequent proteolysis measurements. Finally, the electrodes were rinsed with deionized water to remove any non-bound peptide-Fc substrate that may be physiosorbed on the surface. For multiplex experiments, the chip was masked with a ˜1.2 mm thick polydimethylsiloxane (PDMS) film punched with a 3×3 array of ˜0.7 mm diameter holes that were aligned on top of each Au microelectrodes. About 100 μl mixed thiol solution (6-mercapto-1-hexanol and 6-mercapto-1-hexanoic acid) as described above was added on the chip surface to fill all nine PDMS holes and was incubated for 40 min. Then, the microelectrodes and wells were rinsed and dried on a hot plate at 35° C. Finally, 0.50 μl of the EDC/sulfo-NHS/peptide-Fc (H-3, H-15, or H-16) reaction mixture was added to each well using a nanoinjector mounted on a x-y-z-micromanipulator and incubated for 2 h. […]

Substance	1/τ AVG (6.0 nM cathepsin B) [s⁻¹]	average values of 1/τ (6.0 nM cathepsin B)	average value of 1/τ (CH 1-6, 6.0 nM cathepsin B, MES buffer pH=5.0)	fitted value of 1/τ (CH 4, 6.0 nM cathepsin B, 25 mM MES buffer pH=5.0) [s⁻¹]	1/τ Avg (average of channels 1-6, H-15 modified Au MEA, 6.0 nM cathepsin B, MES buffer pH=5.0) [s⁻¹]	1/τ (individual channels 1-6 of H-15 modified Au MEA, 6.0 nM cathepsin B, MES buffer pH=5.0, FIG. 7)
H2N-(CH2)4-CO-Pro-Leu-Ala-Gly-Val-Ala-NH-CH2-Fc ([Ava]PLAGVA-aminomethylferrocene) [Peptide H-16]	8.90	(8.9±1.1)×10^−4 s^−1	–	–	–	–
H2N-(CH2)4-CO-Pro-Leu-Arg-Phe-Gly-Ala-NH-CH2-Fc ([Ava]PLRFGA-aminomethylferrocene) [Peptide H-3]	7.36	(7.4±0.9)×10^−4 s^−1	–	–	–	–
H2N-(CH2)4-CO-Pro-Leu-Ala-Phe-Val-Ala-NH-CH2-Fc ([Ava]PLAFVA-aminomethylferrocene) [Peptide H-15]	6.79	(6.8±1.8)×10^−4 s^−1	(6.63±0.87)×10^−4 s^−1	0.000684	0.000663	0.000684 s⁻¹ and 0.000779 s⁻¹ and 0.000645 s⁻¹ and 0.00055 s⁻¹ and 0.000734 s⁻¹ and 0.000588 s⁻¹
